Measurements as given in patent publication US20230051954A1 (published 2023).

T1: cynomolgus monkey (Macaca fascicularis) transferrin receptor 1 (cynomolgus monkey (Macaca fascicularis), UniProt Q5RDH6 89-760 (Pongo abelii entry), limits assumed)
T1 construct: Recombinant protein used in ELISA and SPR; also called cTfR1; cyno TfR1
T1 chain: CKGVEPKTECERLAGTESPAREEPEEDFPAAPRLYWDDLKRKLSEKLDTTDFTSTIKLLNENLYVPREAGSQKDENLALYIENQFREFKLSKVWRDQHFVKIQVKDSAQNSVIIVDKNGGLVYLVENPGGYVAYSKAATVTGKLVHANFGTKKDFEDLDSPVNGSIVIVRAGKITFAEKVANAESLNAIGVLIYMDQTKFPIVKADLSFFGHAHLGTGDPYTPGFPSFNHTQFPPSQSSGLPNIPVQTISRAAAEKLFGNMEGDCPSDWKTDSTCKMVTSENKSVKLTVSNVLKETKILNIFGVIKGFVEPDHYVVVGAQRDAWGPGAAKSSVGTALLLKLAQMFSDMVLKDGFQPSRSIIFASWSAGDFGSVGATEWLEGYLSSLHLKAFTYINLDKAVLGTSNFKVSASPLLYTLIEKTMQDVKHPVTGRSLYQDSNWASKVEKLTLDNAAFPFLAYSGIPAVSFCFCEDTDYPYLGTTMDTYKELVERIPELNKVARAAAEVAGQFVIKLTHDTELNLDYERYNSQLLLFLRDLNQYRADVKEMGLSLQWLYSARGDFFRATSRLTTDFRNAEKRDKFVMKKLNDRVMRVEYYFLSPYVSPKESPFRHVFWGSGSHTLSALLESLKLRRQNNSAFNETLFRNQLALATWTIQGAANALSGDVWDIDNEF


Assays:
[1] = target: T1, cynomolgus monkey (Macaca fascicularis) …; test: ELISA, plate-coated cyno TfR1, Fab-ASO300 conjugate; printed as 'Conjugate binding affinity ELISA'
[2] = target: T1, cynomolgus monkey (Macaca fascicularis) …; test: ELISA, DMPK oligo (ASO300) conjugate binding to cyno TfR1
[3] = target: T2, recombinant human transferrin receptor 1 (human, UniProt P02786 89-760); test: ELISA, DMPK oligo (ASO300) conjugate binding to hTfR1
T2 construct: Recombinant protein used in ELISA and SPR; also called hTfR1; huTfR1

[4] = target: T2, recombinant human transferrin receptor 1; test: ELISA, plate-coated human TfR1, Fab-ASO300 conjugate; printed as 'Conjugate binding affinity ELISA'

T2 sequence (P02786 89-760 limits assumed): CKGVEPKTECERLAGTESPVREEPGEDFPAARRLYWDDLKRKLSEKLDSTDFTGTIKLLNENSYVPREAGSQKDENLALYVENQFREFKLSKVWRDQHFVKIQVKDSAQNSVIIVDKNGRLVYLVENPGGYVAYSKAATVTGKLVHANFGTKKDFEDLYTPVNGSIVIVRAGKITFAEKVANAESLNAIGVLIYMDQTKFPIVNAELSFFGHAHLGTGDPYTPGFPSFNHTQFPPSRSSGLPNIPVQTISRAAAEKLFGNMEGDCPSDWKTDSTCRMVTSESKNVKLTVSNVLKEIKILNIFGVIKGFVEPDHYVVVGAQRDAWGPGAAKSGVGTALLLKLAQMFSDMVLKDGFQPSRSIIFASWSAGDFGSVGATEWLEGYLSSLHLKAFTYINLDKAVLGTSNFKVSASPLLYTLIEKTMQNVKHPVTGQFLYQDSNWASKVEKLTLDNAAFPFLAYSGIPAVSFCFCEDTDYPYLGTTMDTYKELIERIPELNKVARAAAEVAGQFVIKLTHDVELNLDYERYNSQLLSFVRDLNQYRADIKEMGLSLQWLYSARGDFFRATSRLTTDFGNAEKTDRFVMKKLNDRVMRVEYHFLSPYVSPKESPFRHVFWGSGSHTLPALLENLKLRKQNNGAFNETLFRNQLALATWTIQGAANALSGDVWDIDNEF

Binder | EC50 [1] [nM] | EC50 [2] [nM] | EC50 [3] [nM] | EC50 [4] [nM]
3A4 (VH3-N54S/Vk4) Fab conjugated to DMPK-targeting oligonucleotide ASO300 (Fab, V domains shown, Fab covalently conjugated to ASO300; also called 3A4 (VH3-N54S/Vk4) conjugate) VH: EVQLVQSGSELKKPGASVKVSCTASGFNIKDDYMYWVRQPPGKGLEWIGWIDPESGDTEYASKFQDRVTVTADTSTNTAYMELSSLRSEDTAVYYCTLWLRRGLDYWGQGTLVTVSS VL: DIVMTQSPLSLPVTPGEPASISCRSSKSLLHSNGYTYLFWFQQRPGQSPRLLIYRMSNLASGVPDRFSGSGSGTDFTLKISRVEAEDVGVYYCMQHLEYPFTFGGGTKVEIKR | 7.8 | 4.1 | 2.71 | 2.9
3A4 (VH3/Vk4) Fab conjugated to DMPK-targeting oligonucleotide ASO300 (Fab, V domains shown, Fab covalently conjugated to ASO300; also called 3A4 (VH3/Vk4) conjugate) VH: EVQLVQSGSELKKPGASVKVSCTASGFNIKDDYMYWVRQPPGKGLEWIGWIDPENGDTEYASKFQDRVTVTADTSTNTAYMELSSLRSEDTAVYYCTLWLRRGLDYWGQGTLVTVSS VL: DIVMTQSPLSLPVTPGEPASISCRSSKSLLHSNGYTYLFWFQQRPGQSPRLLIYRMSNLASGVPDRFSGSGSGTDFTLKISRVEAEDVGVYYCMQHLEYPFTFGGGTKVEIKR | 7.6 | 7.59 | 2.84 | 2.8
5H12 (VH5-C33D/Vk4) Fab conjugated to DMPK-targeting oligonucleotide ASO300 (Fab, V domains shown, Fab covalently conjugated to ASO300; also called 5H12 (VH5-C33D/Vk4) conjugate) VH: QVQLVQSGAEVKKPGASVKVSCKASGYSFTDYDINWVRQAPGQGLEWMGWIYPGSGNTRYSERFKGRVTITRDTSASTAYMELSSLRSEDTAVYYCAREDYYPYHGMDYWGQGTLVTVSS VL: DIVMTQSPDSLAVSLGERATINCRASESVDGYDNSFMHWYQQKPGQPPKLLIFRASNLESGVPDRFSGSGSGTDFTLTISSLQAEDVAVYYCQQSSEDPWTFGQGTKLEIKR | 10.2 | 10.2 | 110 | 110
5H12 (VH5-C33Y/Vk3) Fab conjugated to DMPK-targeting oligonucleotide ASO300 (Fab, V domains shown, Fab covalently conjugated to ASO300; also called 5H12 (VH5-C33Y/Vk3) conjugate) VH: QVQLVQSGAEVKKPGASVKVSCKASGYSFTDYYINWVRQAPGQGLEWMGWIYPGSGNTRYSERFKGRVTITRDTSASTAYMELSSLRSEDTAVYYCAREDYYPYHGMDYWGQGTLVTVSS VL: DIVLTQSPDSLAVSLGERATINCRASESVDGYDNSFMHWYQQKPGQPPKLLIFRASNLESGVPDRFSGSGSRTDFTLTISSLQAEDVAVYYCQQSSEDPWTFGQGTKLEIKR | 2.3 |  |  | 33.4
5H12 (VH5-C33Y/Vk4) Fab conjugated to DMPK-targeting oligonucleotide ASO300 (Fab, V domains shown, Fab covalently conjugated to ASO300) VH: QVQLVQSGAEVKKPGASVKVSCKASGYSFTDYYINWVRQAPGQGLEWMGWIYPGSGNTRYSERFKGRVTITRDTSASTAYMELSSLRSEDTAVYYCAREDYYPYHGMDYWGQGTLVTVSS VL: DIVMTQSPDSLAVSLGERATINCRASESVDGYDNSFMHWYQQKPGQPPKLLIFRASNLESGVPDRFSGSGSGTDFTLTISSLQAEDVAVYYCQQSSEDPWTFGQGTKLEIKR |  | 13.9 | 13.9 | 23.7
3M12 (VH3/Vk2) Fab conjugated to DMPK-targeting oligonucleotide ASO300 (Fab, V domains shown, Fab covalently conjugated to antisense oligonucleotide ASO300 (linker of Formula (C)); also called 3M12 (VH3/Vk2) conjugate; DMPK oligo conjugate) VH: QVQLQESGPGLVKPSQTLSLTCSVTGYSITSGYYWNWIRQPPGKGLEWMGYITFDGANNYNPSLKNRVSISRDTSKNQFSLKLSSVTAEDTATYYCTRSSYDYDVLDYWGQGTTVTVSS VL: DIQMTQSPSSLSASVGDRVTITCRASQDISNFLNWYQQKPGQPVKLLIYYTSRLHSGVPSRFSGSGSGTDFTLTISSLQPEDFATYFCQQGHTLPYTFGQGTKLEIKR | 2.9 | 2.26 | 1.14 | 2.2
3M12 (VH4/Vk3) Fab conjugated to DMPK-targeting oligonucleotide ASO300 (Fab, V domains shown, Fab covalently conjugated to ASO300; also called 3M12 (VH4/Vk3) conjugate; DMPK oligo conjugate) VH: QVQLQESGPGLVKPSQTLSLTCTVTGYSITSGYYWNWIRQPPGKGLEWIGYITFDGANNYNPSLKNRVSISRDTSKNQFSLKLSSVTAEDTATYYCTRSSYDYDVLDYWGQGTTVTVSS VL: DIQMTQSPSSLSASVGDRVTITCRASQDISNFLNWYQQKPGQPVKLLIYYTSRLHSGVPSRFSGSGSGTDFTLTISSLQPEDFATYYCQQGHTLPYTFGQGTKLEIKR | 2.1 | 1.85 | 1.18 | 1.7
3A4 (VH3-N54T/Vk4) Fab conjugated to DMPK-targeting oligonucleotide ASO300 (Fab, V domains shown, Fab covalently conjugated to ASO300; also called 3A4 (VH3-N54T/Vk4) conjugate) VH: EVQLVQSGSELKKPGASVKVSCTASGFNIKDDYMYWVRQPPGKGLEWIGWIDPETGDTEYASKFQDRVTVTADTSTNTAYMELSSLRSEDTAVYYCTLWLRRGLDYWGQGTLVTVSS VL: DIVMTQSPLSLPVTPGEPASISCRSSKSLLHSNGYTYLFWFQQRPGQSPRLLIYRMSNLASGVPDRFSGSGSGTDFTLKISRVEAEDVGVYYCMQHLEYPFTFGGGTKVEIKR | 4.7 | 5.12 |  | 2.8
